According to US20260042831A1, “METHODS OF TREATING SARCOIDOSIS WITH A TNF-A ANTIBODY AND ASSOCIATED COMPOSITIONS AND METHODS” (XENTRIA, INC., priority 2022, published 2026):

Biological target: FcγRIIb (UniProt P31994)
Test: Octet QK384, FcγRIIb on Ni-NTA biosensors, 6 XTMAB-16 concentrations, 1:2 heterogeneous ligand model fit

FcγRIIb, sequence (P31994 43-217): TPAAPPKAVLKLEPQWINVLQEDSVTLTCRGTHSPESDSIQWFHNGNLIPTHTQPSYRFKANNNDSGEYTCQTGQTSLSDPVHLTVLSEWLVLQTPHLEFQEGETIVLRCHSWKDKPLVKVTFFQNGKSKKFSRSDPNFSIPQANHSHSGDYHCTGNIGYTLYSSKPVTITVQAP

- Kd: 640 nM
Substance: XTMAB-16 (antibody)
